Measurements: patent publication US20140194361A1 (published 2014)
No end group written: not given here.

Target: α5β1 integrin receptor on primary mesangial cells
Experiment: cell-based or functional assay

inhibition of MC adhesion to fibronectin-coated plates, enhanced potency of D- vs. E-control peptide compared to GRGDSP, at 200 µg/ml: 2.4 fold
inhibition of MC adhesion to fibronectin-coated plates, enhanced potency of D- vs. E-control peptide compared to GRGDSP, at 400 µg/ml: 2.8 fold
inhibition of mesangial cell binding to FN-coated plates, potency against GRGDSP: ~3 fold more potent than GRGDSP
B1: modified CGRGDSP peptide (D-peptide) (peptide)
peptide: CGRGDSP
modifications: also: cyclic GRGDSP part, ring closure not given here
